Measurements taken from article PMC4945409.

Biological target: wild-type KDPG aldolase scaffold (1wa3)
Test: SEC

wild-type KDPG aldolase scaffold (1wa3) (enzyme)
stoichiometry N: 3
